Measured values: FireProtDB (doi:10.1021/bi052621g)
Several values for one entry are separate records, joined by “and”; a condition that tells them apart may be missing. Equal entries are not always repeated.

Details: Sus scrofa, pH 7, Thermal, Hepes 20 mM, reversible: No, whole UniProt chain shown

Protein	Tm (CD) [°C]	Tm (DSC, ZnCl2 5 mM) [°C]	unfolding enthalpy (calorimetric) (DSC, ZnCl2 5 mM) [kcal/mol]	unfolding enthalpy (calorimetric) (DSC)
Major seminal plasma glycoprotein PSP-II wild type, P35496 (protein) MKLGTAIPWALLLSTATLVSTARINGPDECGRVIKDTSGSISNTDRQKNLCTWTILMKPDQKVRMAIPYLNLACGKEYVEVFDGLLSGPSYGKLCAGAAIVFLSTANTMTIKYNRISGNSSSPFLIYFYGSSPGSEY	52.6	–	–	–
Major seminal plasma glycoprotein PSP-I wild type, P35495 (protein) MKLGSAIPWALLFSTATLISTGWGLDYHACGGRLTDDYGTIFTYKGPKTECVWTLQVDPKYKLLVSIPTLNLTCGKEYVEILEGAPGSKSLGKFCEGLSILNRGSSGMTVKYKRDSGHPASPYEIIFLRDSQG	–	51.1	17.4	18.4 kcal/mol and 20.8 kcal/mol
